Data as given in patent US20250243261A1.

What was measured:
[1] = biological target: SARS-CoV-2 Wuhan Spike on pseudotyped lentivirus (SARS-CoV-2 Wuhan-Hu-1) (UniProt P0DTC2); assay: cell-based or functional assay
[2] = biological target: HA H7 HK17, A/Hong Kong/125/2017(H7N9) (Influenza A virus); assay: BLI, Fab
[3] = biological target: HA H4 Hubei, A/swine/Hubei/06/2009(H4N1) (Influenza A virus); assay: BLI, Fab

Chain of LY-1404 WT IgG (antibody) (VH): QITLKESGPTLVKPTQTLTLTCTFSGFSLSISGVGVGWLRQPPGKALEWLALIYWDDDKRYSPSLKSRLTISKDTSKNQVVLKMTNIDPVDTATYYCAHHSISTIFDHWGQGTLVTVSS
Chain of LY-1404 WT IgG (antibody) (VL): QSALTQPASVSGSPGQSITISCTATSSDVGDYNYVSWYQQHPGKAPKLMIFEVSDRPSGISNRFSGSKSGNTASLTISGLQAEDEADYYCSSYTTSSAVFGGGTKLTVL

Substance | Wuhan pseudotyped lentivirus IC50 [1] [µg/mL] | Kd [2] [nM] | Kd [3] [nM]
LY-1404 WT IgG (antibody) | 3.1 | – | –
MEDI8852 WT Fab | – | 0.2 | 0.56
